92 sequences from the Immune Epitope Database (IEDB) can be followed below.

Where only a bound is given, the exact number is not on record here.

The first test has as its target HLA-A*02:01. Nature of the test: IEDB peptide-MHC binding, cellular MHC/competitive/fluorescence; ≥ and ≤ were set here for values at or beyond the usual limits of such assays. To be noted: source organism: Influenza A virus.
Usually IC50 stands for the point on the concentration scale where inhibition reaches its midpoint. On to ITFMQALQLL, for which the half-maximal inhibitory concentration (IC50) came out at 7.71 µM.

The same test, now with this note: source organism: Mammarenavirus machupoense.
SVVQALTSL returned an IC50 of 9.24 µM.

The same test, now with this note: source organism: Mammarenavirus whitewaterense.
For the sequence LQFIVFLLL, the IC50 was found to be 51.6 µM.

Still in this test, the particulars now being: source organism: Vaccinia virus WR.
KIKHKGMSFV: the IC50 turned out to be 15.8 µM.
Turning to DAAVAVAAA, the half-maximal inhibitory concentration (IC50) was 5.2 µM.
PIVISKALET yielded an IC50 of 26.8 µM.
Regarding TIDGVSKKNI, the half-maximal inhibitory concentration (IC50) was not below 70 µM.
ETDRENAII gave an IC50 of 67.3 µM.
Regarding AIFTDASTVA, the IC50 is 18.5 µM.
The same measure, in the same setting: the same measure for TLPSIFLIIT: 9.73 µM; for NIVWEKKSL: 10.9 µM.
Same read-out and setting: to ATESDAIRT belongs 10.8 µM; to DTQQHPIVV, 13.9 µM; to IMKTPGNTDA, 9.42 µM.
On the same count and under the same terms, to EQEIESLEAT belongs 42.7 µM.
STNFLANAST registered a half-maximal inhibitory concentration (IC50) not below 70 µM.
Sequence FASGNSIDDI returned an IC50 of 9.21 µM.
Same read-out and setting: to SQLSVLSSIT belongs 11.5 µM; to DILANRDST, not below 70 µM; to LTKIDTTHV, 14 µM.
On the same count and under the same terms, to ATLGPANRI belongs 17 µM.
For GIPITIRVT, the IC50 stood at 18.7 µM.
In turn, KAMCNTRDT returned an IC50 of 51.6 µM.
On to SANEAAITDA, for which the 50% inhibitory concentration (IC50) was 10.2 µM.
LVIVSDGPPT registered a concentration for half-maximal inhibition (IC50) not below 70 µM.
With IVGLDLENL, the IC50 was determined as 14.2 µM.
Sequence LTAVEHIPT yielded an IC50 not below 70 µM.
For the sequence EVRKYFCVKT, the IC50 is 23.2 µM.
On the same count and under the same terms, the same measure for PVNNNIVLHT: 35.8 µM.
With EVSYFTNKRT, the IC50 worked out at 66.1 µM.
Sequence SISIKLTDSL yielded a 50% inhibitory concentration (IC50) of 6.24 µM.
Same read-out and setting: the same measure for ELVFIKPPL: 28 µM; for SVDCNKELM: 11.2 µM.
The same measure, in the same setting: to RVETSPRPTA belongs 36.5 µM.
GTLDFFKQT yielded an IC50 of 49.5 µM.
In turn, MIKVGNCDET returned an IC50 not below 70 µM.
LVNAIIDSA yielded a 50% inhibitory concentration (IC50) of 15.6 µM.
Turning to TVSTIDGRIV, the IC50 is not below 70 µM.
As for RINDDSKSI, the 50% inhibitory concentration (IC50) amounted to 13.4 µM.
For EAAITDAAVA, the IC50 was found to be 26.3 µM.
For TACNNTIII, the half-inhibitory concentration (IC50) is 11.3 µM.
The sequence PVHDILSGL returned an IC50 not below 70 µM.
The sequence KTFIIHKNL returned an IC50 of 9.47 µM.
Regarding IATYIDALA, the IC50 stood at 12.4 µM.
For TASGGKVLIT, the IC50 is not below 70 µM.
Still for that read-out and setting: the same measure for VTFNPVSDI: 46.3 µM.
Same read-out and setting: the same measure for HLSCKSGFT: 6.23 µM; for DASLMDMIT: 10.5 µM; for QQKCDMPSL: 25 µM.
The same measure, in the same setting: the same measure for VTNKEGVKI: 57.4 µM.
With ETIGNQLYLT, the IC50 was found to be 14.6 µM.
In turn, AIKCEGLDV had an IC50 of 13.6 µM.
Turning to LAIDFGNGA, the IC50 turned out to be 46.6 µM.
STAVNEEWLT yielded an IC50 of 25.4 µM.
Sequence SATVYGDKI registered an IC50 of 12.9 µM.
Consider IIHTGCSQVM, for which the IC50 amounted to 12.4 µM.
For RTRGPLGIL, the IC50 came to 51.3 µM.
For LTVSFIDET, the half-maximal inhibitory concentration (IC50) was not below 70 µM.
Consider HIDYNEDMIT, for which the half-inhibitory concentration (IC50) worked out at 51.4 µM.
AIIRQRNDEI yielded an IC50 of 17.4 µM.
Regarding STILNSIDI, the half-maximal inhibitory concentration (IC50) turned out to be 7.49 µM.
With PTINKSIYII, the IC50 came out at 6.11 µM.
Turning to DLVVLGKVT, the half-maximal inhibitory concentration (IC50) came to 53.3 µM.
Regarding IVARRKDQT, the 50% inhibitory concentration (IC50) is not below 70 µM.
Take LQTIEIIFT: the half-inhibitory concentration (IC50) is 9.68 µM.
ELNLSKFMM came in with a half-inhibitory concentration (IC50) of 7 µM.
For ATYHIIIVA, the IC50 worked out at 6.42 µM.
Sequence YTVMVKINPT returned an IC50 of 9.38 µM.
Consider PTNKLQAAVM, for which the half-maximal inhibitory concentration (IC50) turned out to be 29.5 µM.
On the same count and under the same terms, to MLYQLLEAV belongs 14.9 µM.
Still for that read-out and setting: to IIDFLEGALI belongs not below 70 µM.
Take DQYKFHKLL: the IC50 was 16 µM.
Sequence CVDNHLGAT came in with an IC50 of 52.1 µM.
Consider SLSKRERQL, for which the IC50 was 5.77 µM.
TTSDYQDSDV returned a 50% inhibitory concentration (IC50) of 11.9 µM.
Consider STPMTEYII, for which the IC50 was not below 70 µM.
Sequence TIKCSNLCT registered a concentration for half-maximal inhibition (IC50) of 8.78 µM.
For QTPIQSDAGM, the IC50 was 34.3 µM.
On the same count and under the same terms, the same measure for ELQKFSFKIA: not below 70 µM.
Sequence LISMYCSKT came in with an IC50 of 12.5 µM.
TVTNLISETL had an IC50 of 16.6 µM.
Take CVVYPGNGFV: the IC50 turned out to be 24.9 µM.
In the case of IIPSSIPVST, the IC50 stood at 17.1 µM.
The sequence DLSKLSKDVV returned a half-maximal inhibitory concentration (IC50) not below 70 µM.
The sequence SVFAASKQQM displayed an IC50 not below 70 µM.
For EITELVVEYM, the IC50 was determined as 35.6 µM.
Still for that read-out and setting: to DIVSKLTFL belongs 7.81 µM; to FTVTNKEGV, 10.3 µM.
Take VVKYLSGGGI: the IC50 is not below 70 µM.
On to GASYISCTA, for which the 50% inhibitory concentration (IC50) was determined as 7.35 µM.
Consider AASSTHRKVA, for which the concentration for half-maximal inhibition (IC50) was not below 70 µM.
Sequence SQSTDIVCET showed an IC50 of 26 µM.
